{
  "source": "paper doi:10.1101/2025.02.03.636245",
  "target": "OdinSepF (Candidatus Odinarchaeota)",
  "experiment": "SEC-MALS",
  "data": [
    {"substance": "OdinSepF (natural protein)", "values": [
      {"measurement": "stoichiometry N", "value": 2}
    ]}
  ]
}
